From patent US12467929

What was measured:
[1] = target: recombinant UBE3A protein (Homo sapiens (Human)) (UniProt Q05086); test: 3-step Simoa; capture Novus; UBE3A 10 ng/ml
[2] = target: recombinant UBE3A protein (Homo sapiens (Human)) (UniProt Q05086); test: 3-step Simoa; capture GTX; UBE3A 0.1 ng/ml
[3] = target: recombinant UBE3A protein (Homo sapiens (Human)) (UniProt Q05086); test: 2-step Simoa; capture Novus; UBE3A 0.1 ng/ml
[4] = target: recombinant UBE3A protein (Homo sapiens (Human)) (UniProt Q05086); test: 2-step Simoa; capture GTX; UBE3A 1 ng/ml
[5] = target: recombinant UBE3A protein (Homo sapiens (Human)) (UniProt Q05086); test: 2-step Simoa; capture GTX; UBE3A 10 ng/ml
[6] = target: recombinant UBE3A protein (Homo sapiens (Human)) (UniProt Q05086); test: 2-step Simoa; capture Novus; UBE3A 10 ng/ml
[7] = target: recombinant UBE3A protein (Homo sapiens (Human)) (UniProt Q05086); test: 3-step Simoa; capture Novus; UBE3A 0.01 ng/ml
[8] = target: recombinant UBE3A protein (Homo sapiens (Human)) (UniProt Q05086); test: 2-step Simoa; capture GTX; UBE3A 0.01 ng/ml
[9] = target: recombinant UBE3A protein (Homo sapiens (Human)) (UniProt Q05086); test: 3-step Simoa; capture MS 2F6; UBE3A 1 ng/ml
[10] = target: recombinant UBE3A protein (Homo sapiens (Human)) (UniProt Q05086); test: 2-step Simoa; capture MS 2F6; UBE3A 0.1 ng/ml
[11] = target: recombinant UBE3A protein (Homo sapiens (Human)) (UniProt Q05086); test: 3-step Simoa; capture Novus; UBE3A 1 ng/ml
[12] = target: recombinant UBE3A protein (Homo sapiens (Human)) (UniProt Q05086); test: 2-step Simoa; capture MS 2F6; UBE3A 1 ng/ml
[13] = target: recombinant UBE3A protein (Homo sapiens (Human)) (UniProt Q05086); test: 2-step Simoa; capture MS 2F6; UBE3A 10 ng/ml
[14] = target: recombinant UBE3A protein (Homo sapiens (Human)) (UniProt Q05086); test: 3-step Simoa; capture MS 2F6; UBE3A 10 ng/ml
[15] = target: recombinant UBE3A protein (Homo sapiens (Human)) (UniProt Q05086); test: 2-step Simoa; capture MS 2F6; UBE3A 0.01 ng/ml
[16] = target: recombinant UBE3A protein (Homo sapiens (Human)) (UniProt Q05086); test: 3-step Simoa; capture MS 2F6; UBE3A 0.1 ng/ml
[17] = target: recombinant UBE3A protein (Homo sapiens (Human)) (UniProt Q05086); test: 3-step Simoa; capture GTX; UBE3A 1 ng/ml
[18] = target: recombinant UBE3A protein (Homo sapiens (Human)) (UniProt Q05086); test: 3-step Simoa; capture GTX; UBE3A 10 ng/ml
[19] = target: recombinant UBE3A protein (Homo sapiens (Human)) (UniProt Q05086); test: 2-step Simoa; capture Novus; UBE3A 1 ng/ml
[20] = target: recombinant UBE3A protein (Homo sapiens (Human)) (UniProt Q05086); test: 3-step Simoa; capture Novus; UBE3A 0.1 ng/ml
[21] = target: recombinant UBE3A protein (Homo sapiens (Human)) (UniProt Q05086); test: 2-step Simoa; capture Novus; UBE3A 0.01 ng/ml
[22] = target: recombinant UBE3A protein (Homo sapiens (Human)) (UniProt Q05086); test: Simoa head-to-head, Table 10; capture GTX; UBE3A 0.16 ng/ml
[23] = target: recombinant UBE3A protein (Homo sapiens (Human)) (UniProt Q05086); test: 3-step Simoa; capture GTX; UBE3A 0.01 ng/ml

Sequence of UniProt Q05086 (Q05086 whole entry): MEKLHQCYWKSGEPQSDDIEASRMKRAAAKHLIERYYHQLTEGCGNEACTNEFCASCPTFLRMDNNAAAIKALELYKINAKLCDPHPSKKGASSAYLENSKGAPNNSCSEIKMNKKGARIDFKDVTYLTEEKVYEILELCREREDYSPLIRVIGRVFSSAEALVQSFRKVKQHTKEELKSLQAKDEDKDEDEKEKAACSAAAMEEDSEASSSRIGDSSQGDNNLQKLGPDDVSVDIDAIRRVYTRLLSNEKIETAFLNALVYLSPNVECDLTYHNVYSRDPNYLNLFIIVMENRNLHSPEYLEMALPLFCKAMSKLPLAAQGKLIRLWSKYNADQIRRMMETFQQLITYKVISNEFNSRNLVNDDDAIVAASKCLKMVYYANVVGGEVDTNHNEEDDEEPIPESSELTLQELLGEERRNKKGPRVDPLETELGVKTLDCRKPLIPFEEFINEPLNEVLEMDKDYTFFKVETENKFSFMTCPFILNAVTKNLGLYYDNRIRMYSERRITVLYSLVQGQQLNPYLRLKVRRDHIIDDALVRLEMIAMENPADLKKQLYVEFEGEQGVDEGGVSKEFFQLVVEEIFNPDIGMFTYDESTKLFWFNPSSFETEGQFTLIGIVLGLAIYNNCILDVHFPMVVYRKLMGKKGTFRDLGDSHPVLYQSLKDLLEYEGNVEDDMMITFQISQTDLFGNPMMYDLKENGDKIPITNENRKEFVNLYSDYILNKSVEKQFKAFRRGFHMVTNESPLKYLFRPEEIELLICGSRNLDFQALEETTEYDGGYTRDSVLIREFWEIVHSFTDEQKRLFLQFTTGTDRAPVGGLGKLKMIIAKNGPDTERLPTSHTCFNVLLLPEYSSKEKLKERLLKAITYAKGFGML

Question: Which results are given for NB500-240 (Novus) (antibody)?
Answer: AEB1 [1]: 0.0168; AEB2 [1]: 0.0179; Ave AEB [1]: 0.0173; Signal to Background [1]: 1.65; AEB1 [2]: 0.005; AEB2 [2]: 0.0068; Ave AEB [2]: 0.0059; Signal to Background [2]: 0.97; AEB1 [3]: 0.0167; AEB2 [3]: 0.0132; Ave AEB [3]: 0.0149; Signal to Background [3]: 0.9; AEB1 [4]: 0.0247; AEB2 [4]: 0.0237; Ave AEB [4]: 0.0242; Signal to Background [4]: 3.26; AEB1 [5]: 0.126; AEB2 [5]: 0.13; Ave AEB [5]: 0.128; Signal to Background [5]: 17.3; AEB1 [6]: 0.0441; AEB2 [6]: 0.0461; Ave AEB [6]: 0.0451; Signal to Background [6]: 2.71; AEB1 [7]: 0.011; AEB2 [7]: 0.0112; Ave AEB [7]: 0.0111; Signal to Background [7]: 1.06; AEB1 [8]: 0.0082; AEB2 [8]: 0.0072; Ave AEB [8]: 0.0077; Signal to Background [8]: 1.04; AEB1 [9]: 0.0095; AEB2 [9]: 0.009; Ave AEB [9]: 0.0092; Signal to Background [9]: 1.06; AEB1 [10]: 0.0164; AEB2 [10]: 0.0185; Ave AEB [10]: 0.0175; Signal to Background [10]: 1.06; AEB1 [11]: 0.0125; AEB2 [11]: 0.0145; Ave AEB [11]: 0.0135; Signal to Background [11]: 1.29; AEB1 [12]: 0.0212; AEB2 [12]: 0.0206; Ave AEB [12]: 0.0209; Signal to Background [12]: 1.27; AEB1 [13]: 0.0437; AEB2 [13]: 0.0449; Ave AEB [13]: 0.0443; Signal to Background [13]: 2.7; AEB1 [14]: 0.0153; AEB2 [14]: 0.0116; Ave AEB [14]: 0.0134; Signal to Background [14]: 1.54; AEB1 [15]: 0.0183; AEB2 [15]: 0.0162; Ave AEB [15]: 0.0172; Signal to Background [15]: 1.05; AEB1 [16]: 0.0107; AEB2 [16]: 0.0084; Ave AEB [16]: 0.0095; Signal to Background [16]: 1.1; AEB1 [17]: 0.0097; AEB2 [17]: 0.0091; Ave AEB [17]: 0.0094; Signal to Background [17]: 1.54; AEB1 [18]: 0.0356; AEB2 [18]: 0.0426; Ave AEB [18]: 0.0391; Signal to Background [18]: 6.42; AEB1 [19]: 0.0174; AEB2 [19]: 0.0179; Ave AEB [19]: 0.0177; Signal to Background [19]: 1.06; AEB1 [20]: 0.014; AEB2 [20]: 0.0114; Ave AEB [20]: 0.0127; Signal to Background [20]: 1.21; AEB1 [21]: 0.0255; AEB2 [21]: 0.0175; Ave AEB [21]: 0.0215; Signal to Background [21]: 1.29; AEB1 [22]: 0.0038; AEB2 [22]: 0.004; Ave AEB [22]: 0.0039; Signal to Background [22]: 1.88; AEB1 [23]: 0.0064; AEB2 [23]: 0.0053; Ave AEB [23]: 0.0059; Signal to Background [23]: 0.96

Question: Which AEB1 [1] does the source give for “anti-UBE3A antibody 3E5 (SAB1404508-100 ug, Millipore-Sigma)” here?
Answer: 0.159

Question: And the AEB2 [1]?
Answer: 0.154

Question: What about the Ave AEB [1] of the same substance?
Answer: 0.156

Question: And the Signal to Background [1]?
Answer: 16.5

Question: And the AEB1 [2]?
Answer: 0.0204

Question: What about the AEB2 [2] of the same substance?
Answer: 0.0181

Question: What about the Ave AEB [2] of the same substance?
Answer: 0.0192

Question: And the Signal to Background [2]?
Answer: 2.25

Question: What about the AEB1 [3] of the same substance?
Answer: 0.0237

Question: What about the AEB2 [3] of the same substance?
Answer: 0.0272

Question: And the Ave AEB [3]?
Answer: 0.0255

Question: And the Signal to Background [3]?
Answer: 1.02

Question: And the AEB1 [4]?
Answer: 0.152

Question: And the AEB2 [4]?
Answer: 0.157

Question: What about the Ave AEB [4] of the same substance?
Answer: 0.154

Question: What about the AEB1 [5] of the same substance?
Answer: 0.724

Question: And the Ave AEB [5]?
Answer: 0.724

Question: What about the AEB1 [6] of the same substance?
Answer: 0.174

Question: What about the AEB2 [6] of the same substance?
Answer: 0.164

Question: What about the Ave AEB [6] of the same substance?
Answer: 0.169

Question: What about the Signal to Background [6] of the same substance?
Answer: 6.77

Question: What about the AEB1 [7] of the same substance?
Answer: 0.0105

Question: And the AEB2 [7]?
Answer: 0.0102

Question: What about the Ave AEB [7] of the same substance?
Answer: 0.0104

Question: And the Signal to Background [7]?
Answer: 1.09

Question: What about the AEB1 [8] of the same substance?
Answer: 0.0162

Question: And the AEB2 [8]?
Answer: 0.0168

Question: And the Ave AEB [8]?
Answer: 0.0165

Question: And the AEB1 [9]?
Answer: 0.0206

Question: What about the AEB2 [9] of the same substance?
Answer: 0.0228

Question: What about the Ave AEB [9] of the same substance?
Answer: 0.0217

Question: And the Signal to Background [9]?
Answer: 5.52

Question: What about the AEB1 [10] of the same substance?
Answer: 0.0169

Question: And the AEB2 [10]?
Answer: 0.0141

Question: What about the Ave AEB [10] of the same substance?
Answer: 0.0155

Question: And the Signal to Background [10]?
Answer: 1.38

Question: And the AEB1 [11]?
Answer: 0.0276

Question: And the AEB2 [11]?
Answer: 0.0233

Question: And the Ave AEB [11]?
Answer: 0.0254

Question: What about the Signal to Background [11] of the same substance?
Answer: 2.68

Question: And the AEB1 [12]?
Answer: 0.0424

Question: And the AEB2 [12]?
Answer: 0.0451

Question: And the Ave AEB [12]?
Answer: 0.0437

Question: What about the Signal to Background [12] of the same substance?
Answer: 3.9

Question: And the AEB1 [13]?
Answer: 0.334

Question: What about the AEB2 [13] of the same substance?
Answer: 0.338

Question: What about the Ave AEB [13] of the same substance?
Answer: 0.336

Question: And the Signal to Background [13]?
Answer: 30

Question: And the AEB1 [14]?
Answer: 0.177

Question: And the AEB2 [14]?
Answer: 0.188

Question: And the Ave AEB [14]?
Answer: 0.183

Question: What about the Signal to Background [14] of the same substance?
Answer: 46.6

Question: What about the AEB1 [15] of the same substance?
Answer: 0.0113

Question: What about the AEB2 [15] of the same substance?
Answer: 0.0141

Question: What about the Ave AEB [15] of the same substance?
Answer: 0.0127

Question: What about the Signal to Background [15] of the same substance?
Answer: 1.13

Question: What about the AEB1 [16] of the same substance?
Answer: 0.0063

Question: And the AEB2 [16]?
Answer: 0.0064

Question: And the Ave AEB [16]?
Answer: 0.0063

Question: And the Signal to Background [16]?
Answer: 1.62

Question: What about the AEB2 [17] of the same substance?
Answer: 0.0774

Question: What about the Ave AEB [17] of the same substance?
Answer: 0.0774

Question: What about the Signal to Background [17] of the same substance?
Answer: 9.06

Question: And the AEB1 [18]?
Answer: 0.404

Question: What about the AEB2 [18] of the same substance?
Answer: 0.425

Question: What about the Ave AEB [18] of the same substance?
Answer: 0.414

Question: And the Signal to Background [18]?
Answer: 48.5

Question: And the AEB1 [19]?
Answer: 0.0412

Question: And the AEB2 [19]?
Answer: 0.0426

Question: And the Ave AEB [19]?
Answer: 0.0419

Question: What about the Signal to Background [19] of the same substance?
Answer: 1.68

Question: And the AEB1 [20]?
Answer: 0.0142

Question: What about the AEB2 [20] of the same substance?
Answer: 0.0119

Question: And the Ave AEB [20]?
Answer: 0.013

Question: And the Signal to Background [20]?
Answer: 1.38

Question: What about the AEB1 [21] of the same substance?
Answer: 0.0302

Question: What about the AEB2 [21] of the same substance?
Answer: 0.0257

Question: And the Ave AEB [21]?
Answer: 0.028

Question: What about the Signal to Background [21] of the same substance?
Answer: 1.12

Question: What about the AEB1 [22] of the same substance?
Answer: 0.0558

Question: And the AEB2 [22]?
Answer: 0.0571

Question: What about the Ave AEB [22] of the same substance?
Answer: 0.0564

Question: What about the Signal to Background [22] of the same substance?
Answer: 2.48

Question: What about the AEB1 [23] of the same substance?
Answer: 0.0084

Question: What about the AEB2 [23] of the same substance?
Answer: 0.0082

Question: And the Ave AEB [23]?
Answer: 0.0083

Question: And the Signal to Background [23]?
Answer: 0.972
